Target: the molecule itself
Assay: SEC; size-exclusion HPLC, Spherogel-TSK-2000SW; Gal-10 diluted to 100 μM, incubated 2 h at 4 °C; PBS–azide buffer (6.7 mM KH2PO4, 150 mM NaCl, 14 mM β-mercaptoethanol, 0.02% NaN3), pH 7.4; monomer–dimer equilibrium

B1: Recombinant human Charcot–Leyden crystal (CLC) protein (natural protein, UniProt Q05315 1-142, looked up)
chain: MSLLPVPYTEAASLSTGSTVTIKGRPLACFLNEPYLQVDFHTEMKEESDIVFHFQVCFGRRVVMNSREYGAWKQQVESKNMPFQDGQEFELSISVLPDKYQVMVNGQSSYTFDHRIKPEAVKMVQVWRDISLTKFNVSYLKR
notes: Galectin-10 (Charcot-Leyden crystal protein), human; the introduction gives 142 amino-acid residues; also called Galectin-10; Gal-10; source: E. coli, bought: Cloud-Clone Corp., purified with Ni-nitrilotriacetic acid resin
- stoichiometry N: 2

— article PMC9966682, “Lactose and Galactose Promote the Crystallization of Human Galectin-10” (Molecules, 2023)
